Starred links: 1 amine or outer side, 2 acyl side, 3 side chain; linkers in the order of their positions; H or OH if unused. Positions of bridges follow the written chain, without caps; N, C: chain ends. Non-standard residues stand in square brackets, D forms with d. Primed or numbered codes have the meaning given here. PyrS2(3) = (S)-3-amino-1-((pent-4-en-1-yloxy)carbonyl)pyrrolidine-3-carboxylic acid, stapling residue, C=CCCCOC(=O)N1CC[C@@](N[*:1])(C(=O)[*:2])C1; PyrS2″ = (S)-3-amino-1-((pent-4-en-1-yloxy)carbonyl)pyrrolidine-3-carboxylic acid (stapling residue), C=CCCCOC(=O)N1CC[C@@](N[*:1])(C(=O)[*:2])C1; B5(16) = 2-amino-2-(pent-4-en-1-yl)hept-6-enoic acid = 2,2-bis(4-pentenyl)glycine (stitching residue), C=CCCCC(CCCC=C)(N[*:1])C(=O)[*:2]; B5(4) = 2,2-bis(4-pentenyl)glycine = 2-amino-2-(pent-4-en-1-yl)hept-6-enoic acid (stitching residue), C=CCCCC(CCCC=C)(N[*:1])C(=O)[*:2]; B5(21) = 2-amino-2-(pent-4-en-1-yl)hept-6-enoic acid, bis(4-pentenyl)glycine (stitching residue), C=CCCCC(CCCC=C)(N[*:1])C(=O)[*:2]; SeN = (S)-5-(((allyloxy)carbonyl)(methyl)amino)-2-amino-2-methylpentanoic acid, C=CCOC(=O)N(C)CCC[C@](C)(N[*:1])C(=O)[*:2]; RdN = (R)-4-(((allyloxy)carbonyl)(methyl)amino)-2-amino-2-methylbutanoic acid, C=CCOC(=O)N(C)CC[C@@](C)(N[*:1])C(=O)[*:2]; SdN = (S)-4-(((allyloxy)carbonyl)(methyl)amino)-2-amino-2-methylbutanoic acid, C=CCOC(=O)N(C)CC[C@](C)(N[*:1])C(=O)[*:2]; S7 = C[C@@](CCCCCC=[*:3])(N[*:1])C(=O)[*:2]; Phe(2-Cl) = N[C@@H](Cc1ccccc1Cl)C(=O)O; Bta = N[C@@H](Cc1csc2ccccc12)C(=O)O; αAllylPro = C=CC[C@@]1(C(=O)O)CCCN1; tBuAla = CC(C)(C)C[C@H](N)C(=O)O; Cha = N[C@@H](CC1CCCCC1)C(=O)O; R5 = C=CCCC[C@@](C)(N)C(=O)O
T1: full-length beta-Catenin (Uniprot ID P35222) (Homo sapiens (Human), UniProt P35222 1-781)
T1 construct: also called bCat
T1 sequence: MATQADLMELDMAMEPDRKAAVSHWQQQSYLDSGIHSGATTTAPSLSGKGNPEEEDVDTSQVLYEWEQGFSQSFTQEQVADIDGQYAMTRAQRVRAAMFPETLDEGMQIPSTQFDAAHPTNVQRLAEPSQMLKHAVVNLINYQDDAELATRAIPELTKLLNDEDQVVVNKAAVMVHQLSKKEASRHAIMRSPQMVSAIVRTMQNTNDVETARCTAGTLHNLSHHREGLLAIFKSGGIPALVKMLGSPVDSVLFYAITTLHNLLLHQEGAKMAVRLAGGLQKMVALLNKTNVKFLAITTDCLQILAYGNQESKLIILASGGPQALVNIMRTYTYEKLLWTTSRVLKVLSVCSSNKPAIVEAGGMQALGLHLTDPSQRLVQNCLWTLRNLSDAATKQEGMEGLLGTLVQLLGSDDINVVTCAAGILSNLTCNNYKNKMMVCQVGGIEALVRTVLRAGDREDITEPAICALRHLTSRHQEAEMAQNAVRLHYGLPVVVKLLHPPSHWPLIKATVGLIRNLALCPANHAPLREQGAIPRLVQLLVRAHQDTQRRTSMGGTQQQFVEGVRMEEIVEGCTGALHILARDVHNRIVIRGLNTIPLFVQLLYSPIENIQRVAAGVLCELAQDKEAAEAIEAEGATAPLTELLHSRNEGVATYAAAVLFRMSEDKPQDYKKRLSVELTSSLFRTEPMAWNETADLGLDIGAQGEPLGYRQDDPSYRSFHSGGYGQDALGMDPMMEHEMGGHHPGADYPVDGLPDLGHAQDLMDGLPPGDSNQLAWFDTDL

T2: full-length beta-Catenin (Uniprot ID P35222) (Homo sapiens (Human), UniProt P35222 2-781)
T2 construct: Used full-length in both the FP and the AlphaScreen assay; also called B-Catenin; bCat
T2 sequence: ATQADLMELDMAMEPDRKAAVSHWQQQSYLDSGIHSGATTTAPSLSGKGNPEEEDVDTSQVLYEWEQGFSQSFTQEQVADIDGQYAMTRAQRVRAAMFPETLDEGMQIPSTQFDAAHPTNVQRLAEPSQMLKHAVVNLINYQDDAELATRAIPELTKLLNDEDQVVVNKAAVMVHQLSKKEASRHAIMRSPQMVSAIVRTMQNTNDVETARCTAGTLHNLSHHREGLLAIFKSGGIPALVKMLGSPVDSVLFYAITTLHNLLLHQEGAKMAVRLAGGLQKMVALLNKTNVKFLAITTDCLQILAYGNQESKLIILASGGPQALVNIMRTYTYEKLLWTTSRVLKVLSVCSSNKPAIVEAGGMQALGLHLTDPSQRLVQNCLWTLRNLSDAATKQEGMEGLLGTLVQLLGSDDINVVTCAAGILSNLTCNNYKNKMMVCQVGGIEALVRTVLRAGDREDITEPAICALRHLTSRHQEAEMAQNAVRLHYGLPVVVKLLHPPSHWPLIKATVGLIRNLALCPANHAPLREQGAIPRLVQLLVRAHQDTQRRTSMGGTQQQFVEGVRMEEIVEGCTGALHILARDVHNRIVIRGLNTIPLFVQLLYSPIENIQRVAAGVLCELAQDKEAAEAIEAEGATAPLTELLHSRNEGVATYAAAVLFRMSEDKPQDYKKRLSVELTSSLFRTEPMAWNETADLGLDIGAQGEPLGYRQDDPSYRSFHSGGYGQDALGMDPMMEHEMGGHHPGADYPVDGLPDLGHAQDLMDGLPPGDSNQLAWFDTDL

B1: I-64 (peptide)
peptide: Ac-ADI[RdN]DDAAFQ[S7]FWH-NH2
modifications: staple 4-11; not fully specified
notes: Stapled peptide; also called Ac-Ala-Asp-Ile-RdN-Asp-Asp-Ala-Ala-Phe-Gln-S7-Phe-Trp-His-NH2
B2: I-66 (peptide)
peptide: Ac-ADI[RdN]DEAAFQ[S7]FWH-NH2
modifications: staple 4-11; not fully specified
notes: Stapled peptide; also called Ac-Ala-Asp-Ile-RdN-Asp-Glu-Ala-Ala-Phe-Gln-S7-Phe-Trp-His-NH2
B3: I-67 (peptide)
peptide: Ac-ADI[RdN]DEAAFQ[S7]FWH-NH2
modifications: staple 4-11
notes: as for B2
B4: I-55 (peptide)
peptide: Ac-[αAllylPro]DA[B5(4)]DDAAFV[SdN]FWQ-NH2
modifications: staple 1-4, 4-11
notes: Stapled (stitched) peptide; also called Ac-PL3-Asp-Ala-B5-Asp-Asp-Ala-Ala-Phe-Val-SdN-Phe-Trp-Gln-NH2
B5: I-54 (peptide)
peptide: Ac-[αAllylPro]DA[B5(21)]DDAAFV[SeN]FWQ-NH2
modifications: staple 1-4, 4-11
notes: Stapled (stitched) peptide; also called Ac-PL3-Asp-Ala-B5-Asp-Asp-Ala-Ala-Phe-Val-SeN-Phe-Trp-Gln-NH2

Biological target: T1, full-length beta-Catenin (Uniprot ID …)
Assay: fluorescence polarization competition; full-length beta-catenin; competitor 5FAM-TCF4(10-53) probe
Description: (§1) The plate was incubated protected from light for 60 minutes at 20° C. prior to read. Reads were performed on a CLARIOstar plate reader (BMG Labtech) in duplicate, and data were fitted to a 1:1 binding model with hill slope using an in-house script. All provided concentrations are final concentrations.

Row | EC50 | Binder
1 | 176 nM | Ac-PD[Cha][R5]DDAAFT[PyrS2(3)][Phe(2-Cl)][Bta]S-NH2 (staple 4-11, stapled peptide (single staple)) [I-1184]
2 | 409 nM | Ac-PD[tBuAla][R5]DDAAFN[PyrS2(3)][Phe(2-Cl)][Bta]Q-NH2 (staple 4-11, stapled peptide (single staple)) [I-1183]
3 | 60 nM | Ac-[αAllylPro]DF[B5(16)]DDLLFS[PyrS2″][Phe(2-Cl)][Bta]Q-NH2 (staple 1-4, 4-11, stapled peptide) [I-1155]
4 | 12 nM | Ac-[αAllylPro]DF[B5(16)]DDLAFS[PyrS2″][Phe(2-Cl)][Bta]Q-NH2 (staple 1-4, 4-11, stapled peptide) [I-1153]
5 | 45 nM | Ac-[αAllylPro]DF[B5(16)]DDALFS[PyrS2″][Phe(2-Cl)][Bta]Q-NH2 (staple 1-4, 4-11, stapled peptide) [I-1154]
6 | 168 nM | Ac-[αAllylPro]DF[B5(4)]DDLLFT[PyrS2″][Phe(2-Cl)][Bta]S-NH2 (staple 1-4, 4-11, stapled peptide) [I-1158]
7 | 14 nM | Ac-[αAllylPro]DF[B5(16)]DDLAFT[PyrS2″][Phe(2-Cl)][Bta]S-NH2 (staple 1-4, 4-11, stapled peptide) [I-1156]
8 | 36 nM | Ac-[αAllylPro]DF[B5(4)]DDALFT[PyrS2″][Phe(2-Cl)][Bta]S-NH2 (staple 1-4, 4-11, stapled peptide) [I-1157]

Biological target: T2, full-length beta-Catenin (Uniprot ID …)
Assay: fluorescence polarization competition; full-length beta-catenin, 5FAM-TCF4(10-53) probe
Description: as §1

Row | EC50 | Binder
9 | 4250 nM | B1
10 | 1090 nM | B2
11 | 1230 nM | B3
12 | 5000 nM | B4
13 | 3190 nM | B5

Biological target: T2, full-length beta-Catenin (Uniprot ID …)
Assay: AlphaScreen competition; full-length beta-catenin, biotin-TCF4(10-53) probe
Description: as §1, with “Equal volume of the titrated peptide was added to the” for “The”, “and” for “was”, “incubated for 15 minutes at 20° C. Then 4 uL of donor and 4 uL acceptor beads at 10 ug/mL were added to the plate, for a 16 uL reaction pool and” for “incubated”

Row | EC50 | Binder
14 | 174 nM | B2
15 | 154 nM | B3
16 | 2380 nM | B4
17 | 482 nM | B5

From patent US20240116985A1 (published 2024)
